Reference: patent US20120128663A1
pKd: −log10 of the molar value.

Target: FcRn (human) (UniProt P55899)
Assay: Biacore; pH 6.0

A koff of 0.164 s⁻¹ was found for IgG1/2 N434S/K288L in this work.
A koff of 0.189 s⁻¹ was found for IgG1/2 N434S/R255H in this work.
A koff of 0.107 s⁻¹ was found for IgG1/2 N434S/T307H in this work.
A Ka of 4.34e+06 M⁻¹ and a pKd of 6.64 were found for IgG1/2 Q311L/N434S in this work.
A koff of 0.122 s⁻¹ was found for IgG1/2 N434S/Q438F in this work.
A koff of 0.221 s⁻¹ was found for IgG1/2 N434S/D312K in this work.
A koff of 0.227 s⁻¹ was found for IgG1/2 N434S/V309Q in this work.
A koff of 0.0653 s⁻¹ was found for IgG1/2 N434S/T307M in this work.
A koff of 0.17 s⁻¹ was found for IgG1/2 N434S/K288I in this work.
A koff of 0.163 s⁻¹ was found for IgG1/2 N434S/D312Y in this work.
A Ka of 1.46e+06 M⁻¹ and a pKd of 6.17 were found for IgG1 Y436V in this work.
A Ka of 5.14e+06 M⁻¹ and a pKd of 6.71 were found for IgG1/2 N434S/Y436I in this work.
A koff of 0.359 s⁻¹ was found for IgG1/2 N434S/V309D in this work.
A koff of 0.134 s⁻¹ was found for IgG1/2 N434S/S426H in this work.
A koff of 0.818 s⁻¹ was found for IgG1/2 N434S/I253M in this work.
A Ka of 3.15e+06 M⁻¹ and a pKd of 6.50 were found for IgG1/2 Y436W in this work.
A koff of 0.137 s⁻¹ was found for IgG1/2 N434S/T307L in this work.
A Ka of 2.23e+06 M⁻¹, a pKd of 6.35 and a koff of 0.0867 s⁻¹ were found for IgG1/2 N434S/S426I in this work.
A Ka of 2.69e+06 M⁻¹, a pKd of 6.43 and a koff of 0.094 s⁻¹ were found for IgG1/2 N434S/N286L in this work.
A koff of 0.107 s⁻¹ was found for IgG1/2 N434S/R255W in this work.
A koff of 0.148 s⁻¹ was found for IgG1/2 N434S/N286I in this work.
A koff of 0.164 s⁻¹ was found for IgG1/2 N434S/Q438H in this work.
A koff of 0.0749 s⁻¹ was found for IgG1/2 N434S/T307D in this work.
A Ka of 5.77e+06 M⁻¹ and a pKd of 6.76 were found for IgG1/2 Q311V/N434S in this work.
A koff of 0.121 s⁻¹ was found for IgG1/2 N434S/H433G in this work.
A Ka of 723000 M⁻¹ and a pKd of 5.86 were found for IgG1/2 N434S/Y436K in this work.
A koff of 0.124 s⁻¹ was found for IgG1/2 N434S/N286G in this work.
A koff of 0.189 s⁻¹ was found for IgG1/2 N434S/R255G in this work.
A koff of 0.0965 s⁻¹ was found for IgG1/2 N434S/R255P in this work.
A koff of 0.103 s⁻¹ was found for IgG1/2 N434S/N286Y in this work.
A koff of 0.106 s⁻¹ was found for IgG1/2 N434S/Q438S in this work.
A koff of 0.158 s⁻¹ was found for IgG1/2 N434S/K288F in this work.
A Ka of 2.75e+06 M⁻¹, a pKd of 6.44 and a koff of 0.0981 s⁻¹ were found for IgG1/2 N434S/V284E in this work.
A koff of 0.153 s⁻¹ was found for IgG1/2 N434S/M428V in this work.
A koff of 0.617 s⁻¹ was found for IgG1/2 N434S/V309K in this work.
A koff of 0.143 s⁻¹ was found for IgG1/2 N434S/N286V in this work.
A Ka of 131000 M⁻¹ and a pKd of 5.12 were found for IgG1/2 WT in this work.
A koff of 0.186 s⁻¹ was found for IgG1/2 N434S/R255Q in this work.
A koff of 0.0702 s⁻¹ was found for IgG1/2 N434S/T307E in this work.
A koff of 0.98 s⁻¹ was found for IgG1/2 N434S/I253V in this work.
A koff of 0.092 s⁻¹ was found for IgG1/2 N434S/T307V in this work.
A koff of 0.147 s⁻¹ was found for IgG1/2 N434S/K288N in this work.
A koff of 0.176 s⁻¹ was found for IgG1/2 N434S/K248Y in this work.
A koff of 0.285 s⁻¹ was found for IgG1/2 N434S/S426F in this work.
A koff of 0.162 s⁻¹ was found for IgG1/2 N434S/K288Q in this work.
A koff of 0.213 s⁻¹ was found for IgG1/2 N434S/R255E in this work.
A koff of 0.117 s⁻¹ was found for IgG1/2 N434S/H285D in this work.
A koff of 0.0902 s⁻¹ was found for IgG1/2 N434S/A378S in this work.
A koff of 0.173 s⁻¹ was found for IgG1/2 N434S/S426L in this work.
A Ka of 2.91e+06 M⁻¹ and a pKd of 6.46 were found for IgG1/2 N434S/Y436W in this work.
A koff of 0.211 s⁻¹ was found for IgG1/2 N434S/T307K in this work.
A Ka of 2.36e+06 M⁻¹, a pKd of 6.37 and a koff of 0.0991 s⁻¹ were found for IgG1/2 N434S/N286D in this work.
A koff of 0.111 s⁻¹ was found for IgG1/2 N434S/T307I in this work.
A koff of 0.118 s⁻¹ was found for IgG1/2 N434S/Y436F in this work.
A Ka of 1.71e+06 M⁻¹ and a pKd of 6.23 were found for IgG1 N434S in this work.
A koff of 0.113 s⁻¹ was found for IgG1/2 N434S/Q438N in this work.
A koff of 0.275 s⁻¹ was found for IgG1/2 N434S/S426W in this work.
A koff of 0.0847 s⁻¹ was found for IgG1/2 N434S/T307Y in this work.
A koff of 0.162 s⁻¹ was found for IgG1/2 N434S/K288Y in this work.
A koff of 0.13 s⁻¹ was found for IgG1/2 N434S/V309I in this work.
A koff of 0.139 s⁻¹ was found for IgG1/2 N434S/Q438Y in this work.
A koff of 0.154 s⁻¹ was found for IgG1/2 N434S/K288W in this work.
A koff of 0.117 s⁻¹ was found for IgG1/2 N434S/M428I in this work.
A koff of 0.142 s⁻¹ was found for IgG1/2 N434S/K338H in this work.
A Ka of 2.57e+06 M⁻¹, a pKd of 6.41 and a koff of 0.0943 s⁻¹ were found for IgG1/2 N434S/R255I in this work.
A koff of 0.129 s⁻¹ was found for IgG1/2 N434S/V309Y in this work.
A koff of 0.168 s⁻¹ was found for IgG1/2 N434S/V309F in this work.
A Ka of 1.65e+06 M⁻¹ and a pKd of 6.22 were found for IgG1/2 N434S/Y436L in this work.
A koff of 0.104 s⁻¹ was found for IgG1/2 N434S/Q438D in this work.
A Ka of 1.42e+06 M⁻¹ and a pKd of 6.15 were found for IgG1 Y436W in this work.
A koff of 0.12 s⁻¹ was found for IgG1/2 N434S/N286F in this work.
A koff of 0.136 s⁻¹ was found for IgG1/2 N434S/R255F in this work.
A pKd of 5.93 was found for IgG1/2_WT in this work.
A koff of 0.272 s⁻¹ was found for IgG1/2 N434S/N286K in this work.
A Ka of 532000 M⁻¹ and a pKd of 5.73 were found for IgG1/2 N434S/Y436H in this work.
A koff of 0.364 s⁻¹ was found for IgG1/2 N434S/V309H in this work.
A koff of 0.231 s⁻¹ was found for IgG1/2 N434S/D312R in this work.
A koff of 0.0627 s⁻¹ was found for IgG1/2 N434S/T307W in this work.
A koff of 0.179 s⁻¹ was found for IgG1/2 N434S/A378G in this work.
A Ka of 4.64e+06 M⁻¹ and a pKd of 6.67 were found for IgG1/2 Q311M/N434S in this work.
A koff of 0.122 s⁻¹ was found for IgG1/2 N434S/N286P in this work.
A koff of 0.16 s⁻¹ was found for IgG1/2 N434S/V309P in this work.
A koff of 0.087 s⁻¹ was found for IgG1/2 N434S/T307F in this work.
A koff of 0.0818 s⁻¹ was found for IgG1/2 N434S/T307G in this work.
A Ka of 1.43e+06 M⁻¹ and a pKd of 6.16 were found for IgG1/2 Y436I in this work.
A koff of 0.141 s⁻¹ was found for IgG1/2 N434S/K338R in this work.
A koff of 0.125 s⁻¹ was found for IgG1/2 N434S/T307N in this work.
A koff of 0.149 s⁻¹ was found for IgG1/2 N434S/S426M in this work.
A koff of 0.116 s⁻¹ was found for IgG1/2 N434S/V284D in this work.
A koff of 0.329 s⁻¹ was found for IgG1/2 N434S/V309R in this work.
A koff of 0.121 s⁻¹ was found for IgG1/2 N434S/K288H in this work.
A koff of 0.146 s⁻¹ was found for IgG1/2 N434S/Q438G in this work.
A koff of 0.119 s⁻¹ was found for IgG1/2 N434S/Q438W in this work.
A koff of 0.169 s⁻¹ was found for IgG1/2 N434S/R255S in this work.
A koff of 0.22 s⁻¹ was found for IgG1/2 N434S/S426Y in this work.
A Ka of 2.5e+06 M⁻¹, a pKd of 6.40 and a koff of 0.0988 s⁻¹ were found for IgG1/2 N434S/N286R in this work.
A koff of 0.193 s⁻¹ was found for IgG1/2 N434S/T307R in this work.
A koff of 0.142 s⁻¹ was found for IgG1/2 N434S/D249G in this work.
A koff of 0.149 s⁻¹ was found for IgG1/2 N434S/N286H in this work.
A Ka of 5.92e+06 M⁻¹, a pKd of 6.77 and a koff of 0.0416 s⁻¹ were found for IgG1/2 M428L/N434S in this work.
A Ka of 3.07e+06 M⁻¹, a pKd of 6.49 and a koff of 0.0832 s⁻¹ were found for IgG1/2 N434S/V309W in this work.
A koff of 0.138 s⁻¹ was found for IgG1/2 N434S/V309E in this work.
A Ka of 3.56e+06 M⁻¹ and a pKd of 6.55 were found for IgG1/2 N434S/Y436V in this work.
A koff of 0.0702 s⁻¹ was found for IgG1/2 N434S/T307P in this work.
A koff of 0.104 s⁻¹ was found for IgG1/2 N434S/Q438I in this work.
A koff of 0.137 s⁻¹ was found for IgG1/2 N434S/V309L in this work.
A koff of 0.107 s⁻¹ was found for IgG1/2 N434S/R255L in this work.
